Measured values reported in PMC12727526, “Carbon-monoxide-driven bioethanol production operates through a tungsten-dependent catalyst” (Nature Chemical Biology, 2025).

What was measured:
[1] = biological target: T1, CaAFOR (AOR1) (Clostridium autoethanogenum, UniProt A0ABM5NPY3); conditions: pH 5.5 or 6.5, 37 °C; CO-driven, ferredoxin, CODH/ACS, S. cerevisiae ADH, 0.2 mM NADH; total sodium acetate; apparent
T1 construct: gene CAETHG_0092
T1 sequence (A0ABM5NPY3 1-607): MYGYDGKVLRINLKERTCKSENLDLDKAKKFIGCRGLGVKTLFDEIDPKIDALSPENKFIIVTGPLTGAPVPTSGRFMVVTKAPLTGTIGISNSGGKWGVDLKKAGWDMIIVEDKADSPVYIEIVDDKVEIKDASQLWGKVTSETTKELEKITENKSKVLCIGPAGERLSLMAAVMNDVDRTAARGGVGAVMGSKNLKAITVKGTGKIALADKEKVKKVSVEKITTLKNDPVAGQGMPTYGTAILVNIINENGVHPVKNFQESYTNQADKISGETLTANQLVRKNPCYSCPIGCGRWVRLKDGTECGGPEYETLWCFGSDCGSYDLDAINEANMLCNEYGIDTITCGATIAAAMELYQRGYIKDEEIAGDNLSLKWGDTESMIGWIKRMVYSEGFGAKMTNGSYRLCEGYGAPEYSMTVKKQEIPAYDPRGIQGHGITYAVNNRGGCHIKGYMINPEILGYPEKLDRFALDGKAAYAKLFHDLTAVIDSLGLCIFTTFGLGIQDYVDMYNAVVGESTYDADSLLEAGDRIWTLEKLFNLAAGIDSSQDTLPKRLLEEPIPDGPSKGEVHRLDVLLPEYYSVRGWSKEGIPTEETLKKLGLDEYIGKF

[2] = substrate: CC(=O)O; assay: purified protein; conditions: pH 5.5, 37 °C, CO-driven, ferredoxin, CODH/ACS, S. cerevisiae ADH, 0.2 mM NADH, concentration of protonated acid calculated from total acetate with pKa 4.76, apparent, estimated
[3] = substrate: CC=O; assay: purified protein; assay type: biochemical, Clostridium autoethanogenum; conditions: pH 8.0 (50 mM Tris-HCl), 37 °C, 5 mM methyl viologen, anaerobic, enzyme reactivated by preincubation with ferredoxin, apparent
[4] = substrate: CCC=O; assay: purified protein; assay type: biochemical, Clostridium autoethanogenum; conditions: pH 8.0 (50 mM Tris-HCl), 37 °C, 5 mM methyl viologen, anaerobic, enzyme reactivated by preincubation with ferredoxin, apparent
[5] = substrate: CCCC=O; assay: purified protein; assay type: biochemical, Clostridium autoethanogenum; conditions: pH 8.0 (50 mM Tris-HCl), 37 °C, 5 mM methyl viologen, anaerobic, enzyme reactivated by preincubation with ferredoxin, apparent

`CC(=O)O` [acetate] was tested, and the “kM^app” value [1] was “the high kM^app of CaAFOR for acetate”.

B1: CaAFOR (AOR1) (Clostridium autoethanogenum DSM 10061) (protein)
chain: T1 sequence (A0ABM5NPY3 1-607)
notes: native anaerobic purification from CO-grown cells; full length, no tag; monomer, expected mass 66,335 Da; holds [4Fe-4S] and tungstopterin
Molecule B1 has a Km [2] of 1.63 mM, a Km [3] of 54.40 ± 12.55 µM and a kcat [3] of 4.42 ± 0.31 s⁻¹. It also gave a Km [4] of 165.51 ± 50.50 µM, a kcat [4] of 10.35 ± 1.06 s⁻¹ and a Km [5] of 53.47 ± 19.45 µM. It also gave a kcat [5] of 4.27 ± 0.48 s⁻¹.
